Source: article PMC5526789, “Structure of Full-Length SMC and Rearrangements Required for Chromosome Organization” (Molecular Cell, 2017)

Legend:
[1] = target: Smc(D193C, mH, E1118Q)-HaloTag (Bacillus subtilis) (UniProt P51834); assay: cross-linking; in vivo cysteine cross-linking: intact B. subtilis cells grown in SMG, 0.5 mM BMOE on ice; Smc-HaloTag labelled with HaloTag-TMR, SDS-PAGE, in-gel fluorescence; S152C and D193C report juxtaposed (disengaged) heads of the rod, K1151C ATP-engaged heads, A715C the arm/arm interface near the hinge
[2] = target: BsSmcH-CC8(N634C) (Bacillus subtilis) (UniProt P51834); assay: cross-linking; subunit exchange: equal amounts of two purified single-cysteine proteins mixed on ice, incubated at 37°C in 50 mM Tris-HCl pH 7.4, 200 mM NaCl, 1 mM TCEP; aliquots cross-linked with 200 µM BMOE (R558C to N634C at the hinge dimer interface); SDS-PAGE and Agilent 2100 Bioanalyzer; dimer to monomers
[3] = target: Smc(S152C, mH, E1118Q)-HaloTag (Bacillus subtilis) (UniProt P51834); assay: cross-linking; in vivo cysteine cross-linking: intact B. subtilis cells grown in SMG, 0.5 mM BMOE on ice; Smc-HaloTag labelled with HaloTag-TMR, SDS-PAGE, in-gel fluorescence; S152C and D193C report juxtaposed (disengaged) heads of the rod, K1151C ATP-engaged heads, A715C the arm/arm interface near the hinge
[4] = target: the molecule itself; assay: crystal structure; BsSmcCC2, hanging drop, 4°C, PEG 3350, Tris pH 8, MPD, calcium acetate; space group P1, two dimers in the asymmetric unit

With “Smc(D193C, mH, E1118Q)-HaloTag (from UniProt P51834 1-1186) (natural protein)” as the molecule, how does the cross-linking relative to wild type (% of wild-type levels) [1] read?
Its cross-linking relative to wild type (% of wild-type levels) is 20.

For “BsSmcH-CC8(R558C) (from UniProt P51834 519-637) (domain or fragment)”, which half-life of the hinge dimer (subunit exchange) [2] is on record?
The half-life of the hinge dimer (subunit exchange) was 49 min.

How did the cross-linking relative to wild type (% of wild-type levels) [3] turn out when “Smc(S152C, mH, E1118Q)-HaloTag (from UniProt P51834 1-1186) (natural protein)” was run?
The cross-linking relative to wild type (% of wild-type levels) was 20.

B1: BsSmcCC2 (domain or fragment, Bacillus subtilis)
chain: EKVQMAKEEELAESSAISAKEAKIEDTRDKIQALDESVDELQQVLLVTSEELEKLEGRKEVLKERKKNAVQNQEQLEEAIVQFQQKETVLKEELSKQEAVFETLQAEVKQLRAQVKEKQQALSLHNENVEEKIESGGSGGSRLTKQKQTQSSTKESLSNELTELKIAAAKKEQACKGEEDNLARLKKELTETELALKEAKEDLSFLTSEMSSSTSGEEKLEEAAKHKLNDKTKTIELIALRRDQRIKLQHGLDTYERELKEMKRLYKQKTTLLKDEEV
notes: Smc of Bacillus subtilis, residues 246-379 (N-terminal coiled-coil helix); linker; Smc of Bacillus subtilis, residues 793-929 (C-terminal coiled-coil helix); Selenomethionine-labelled protein was used for the SAD data; also called Smc middle segment; Bs Smc (246-379)/SGGSGGS/(793-929); source: E. coli BL21[DE3], purified (His-Trap, MonoQ, TEV cleavage, Superdex 200); not shown: His6, N-terminal, …
Does B1 bind [4]?
Result: binds
